The target of this test is T1, human PDGFRα (Homo sapiens, UniProt P16234).
T1 construct: HEL cells that endogenously express PDGFRα; endogenous in cells; host or cells: HEL human embryonic lung fibroblasts (ATCC)
Put plainly: Human Phospho-PDGFRα ELISA. The settings on record: HEL; Towne, AD169 and TR strains; IMC-3G3 10 μg/ml, 2 h pretreatment; HCMV MOI=1, 10 min. The class given is cell-based. The method, then:
(A) HEL cells stimulated with HCMV or PDGF-AA were subjected to immunoprecipitation and western blot analyses with indicated antibodies. (B) Phospho-PDGFRα ELISA of cells+/−pretreatment with IMC-3G3 (10 μg/ml, 2 h) followed by HCMV (MOI=1) or PDGF (10 ng/ml) for 10 min. Mean values (n=6)±S.D are shown. (C) Western blot of HEL mock, HCMV, or PDGF-AA stimulated (10 min), +/−IMC-3G3 (2 μg/ml) or Gleevec® (Imatinib) (100 nM). The same membrane was used for p-Akt^Ser 473 and Akt.
(A) Immunofluorescence detection of gB (upper panels) and PDGFRα (lower panels) in PDGFRα KO cells and PDGFRα overexpressing (OE) cells, following incubation with the gB peptide or mock treatment. Reduced PDGFRα surface staining in gB-treated cells is likely due to receptor internalization. (B) and (C) Immunoprecipitation of PDGFRα and gB from HEL lysates and full-length soluble gB alone or pre-incubated together. Immunoprecipitates were subjected to western blot with the indicated antibodies. (D) ELISA of hPDGFRα phosphorylation after HCMV stimulation (MOI=1), PDGF (10 ng/ml) or recombinant soluble gB (30 μg/ml) in presence or absence of gB neutralizing antibodies 7-17 and Mab 758 (5 μg/ml); bars, ±S.D. (E) Portions of same lysates used in (D) were analyzed by western blot with indicated antibodies.
Human Phospho-PDGFRα ELISA. […] Reaction products were read using a microplate reader set at 450 nm. […]
On the technique in general: An ELISA detects its analyte on a solid surface through an enzyme-linked reagent.

T1 sequence (P16234 24-1089): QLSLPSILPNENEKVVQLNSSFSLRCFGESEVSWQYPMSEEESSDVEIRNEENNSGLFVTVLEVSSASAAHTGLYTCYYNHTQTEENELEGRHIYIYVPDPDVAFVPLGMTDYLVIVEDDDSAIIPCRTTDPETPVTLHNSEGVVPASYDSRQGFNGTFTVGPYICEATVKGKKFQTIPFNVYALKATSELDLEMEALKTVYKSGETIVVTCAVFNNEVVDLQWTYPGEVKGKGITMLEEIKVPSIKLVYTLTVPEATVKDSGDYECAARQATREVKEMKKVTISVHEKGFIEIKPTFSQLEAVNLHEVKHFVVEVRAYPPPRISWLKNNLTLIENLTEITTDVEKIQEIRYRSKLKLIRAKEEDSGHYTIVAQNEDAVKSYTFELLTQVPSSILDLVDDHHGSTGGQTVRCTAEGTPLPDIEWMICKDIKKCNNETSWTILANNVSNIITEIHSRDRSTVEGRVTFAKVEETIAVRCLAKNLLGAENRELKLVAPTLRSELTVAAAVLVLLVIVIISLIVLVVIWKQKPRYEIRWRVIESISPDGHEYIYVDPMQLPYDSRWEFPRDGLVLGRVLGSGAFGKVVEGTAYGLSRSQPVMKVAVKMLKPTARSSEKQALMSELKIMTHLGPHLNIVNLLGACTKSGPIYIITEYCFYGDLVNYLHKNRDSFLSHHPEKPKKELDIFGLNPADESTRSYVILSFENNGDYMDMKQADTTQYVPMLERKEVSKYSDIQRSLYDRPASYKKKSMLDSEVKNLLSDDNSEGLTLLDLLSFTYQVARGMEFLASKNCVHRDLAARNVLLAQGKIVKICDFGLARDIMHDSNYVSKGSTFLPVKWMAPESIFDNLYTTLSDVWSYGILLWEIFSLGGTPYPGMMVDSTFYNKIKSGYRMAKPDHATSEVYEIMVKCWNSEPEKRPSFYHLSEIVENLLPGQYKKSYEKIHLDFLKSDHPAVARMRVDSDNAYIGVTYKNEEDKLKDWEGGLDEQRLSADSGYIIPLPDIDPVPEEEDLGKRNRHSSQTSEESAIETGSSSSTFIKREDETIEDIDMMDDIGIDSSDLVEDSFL

For “IMC-3G3: humanized PDGFRα blocking antibody (ImClone Inc.)”, the “PDGFRα phosphorylation induced by HCMV strains” value is “significantly inhibited”.

The record behind these values is patent publication US9340788B2 (priority 2007, dated 2016).
